From patent publication US20220332804A1 (CSL INNOVATION, published 2022)
Changes are numbered by the printed parent chain.

What was measured:
Assay in all cases: SPR, antibody captured, C2 as analyte;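 further: biacore at 37 °C, anti-C2 mAbs held by immobilised goat anti-human IgG, C2 alanine or serine mutants injected, double-referenced sensorgrams fitted to a 1:1 kinetic or steady-state model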
human C2 A326S = molecular target: T1, human C2 A326S (human, UniProt P06681 21-752)
T1 sequence: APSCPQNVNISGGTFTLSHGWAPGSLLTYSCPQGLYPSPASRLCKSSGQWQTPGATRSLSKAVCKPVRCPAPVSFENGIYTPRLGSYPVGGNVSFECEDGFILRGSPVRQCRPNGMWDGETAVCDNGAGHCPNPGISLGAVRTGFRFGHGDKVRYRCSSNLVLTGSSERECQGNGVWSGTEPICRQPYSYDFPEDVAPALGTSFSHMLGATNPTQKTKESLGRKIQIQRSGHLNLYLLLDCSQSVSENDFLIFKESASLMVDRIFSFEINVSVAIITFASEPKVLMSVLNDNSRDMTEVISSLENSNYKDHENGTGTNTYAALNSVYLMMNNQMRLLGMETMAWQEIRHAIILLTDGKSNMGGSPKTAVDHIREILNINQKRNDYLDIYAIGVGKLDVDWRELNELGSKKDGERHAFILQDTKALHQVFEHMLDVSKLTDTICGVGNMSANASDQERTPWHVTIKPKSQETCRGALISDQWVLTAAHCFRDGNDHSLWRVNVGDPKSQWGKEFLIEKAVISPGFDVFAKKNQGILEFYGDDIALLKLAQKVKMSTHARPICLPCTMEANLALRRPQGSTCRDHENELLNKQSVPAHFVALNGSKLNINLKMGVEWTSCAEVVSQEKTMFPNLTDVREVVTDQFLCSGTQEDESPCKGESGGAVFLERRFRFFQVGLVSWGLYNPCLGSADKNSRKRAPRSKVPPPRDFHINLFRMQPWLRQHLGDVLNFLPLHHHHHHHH
Experimental: (§1) Surface plasmon resonance (SPR, Biacore) was used for all binding affinity analyses. In brief, goat anti-human IgG was directly immobilised onto the carboxymethyl dextran surface of CM5 sensorchips to approximately 12,000 RU using standard NHS/EDC chemistry at pH 5. The immobilised antibody surface was pre-conditioned with ten injections of polyclonal human IgG (Privigen 60 s) prepared at 1 μg/mL. Ligands (anti-C2 mAbs) were captured at the beginning of each cycle as described below. An adjacent spot or flow cell in which only Polyclonal IgG was capture was used as a reference surface. The goat anti-human IgG Fc antibody surface was regenerate in 100 mM H3PO4, injected for 45 seconds at the end of each cycle. Experiments were performed at 37° C. and the flow rate of each experiment was kept constant at 30 μL/min.
(§2) Sensogram data was double-referenced against a reference anti-IgG surface (i.e. minus anti-C2 mAb) and blank buffer injections obtained within each experiment. The binding data was fit to 1:1 (kinetic or steady-state) model using local Rmax and null refraction index (RI=0) when appropriate. Buffers and solutions were filtered (0.22 μm) prior to use.

human C2 A472S = molecular target: T2, human C2 A472S (human, UniProt P06681 21-752)
T2 sequence: T1 sequence with S306A, A452S
Experimental: as §1, §2

human C2 T442A = molecular target: T3, human C2 T442A (human, UniProt P06681 21-752)
T3 sequence: T1 sequence with S306A, T422A
Experimental: as §1, §2

human C2 D282A = molecular target: T4, human C2 D282A (human, UniProt P06681 21-752)
T4 sequence: T1 sequence with D262A, S306A
Experimental: as §1, §2

B1: RF16-242 (antibody, human IgG4 S228P, lambda, V domains shown)
VH: EVQLLQSGAEVKKPGESLKISCKGSGYSFTSYWIGWVRQMPGKGLEWMGIIYPGDSDTRYSPSFQGQVTISADKSISTAYLQWSSLKASDTAMYYCARRGHYGDYFDYWGQGTLVTVSS
VL: SYELTQPPSVSVSPGQTARITCSGDALPKKYAYWYHQKSGQAPVLVIYEDRRRPSEIPERFSGSSSGTMATLTITGAQVEDEGVYFCYSRDRAGNQRVFGGGTQLTVLG
notes: pH-dependent anti-C2 antibody from a phage display library
Human C2 A326S
  Kd: 9.9 nM
Human C2 A472S
  Kd: 51.1 nM
Human C2 T442A
  Kd: 18 nM
Human C2 D282A
  Kd: 8 nM
